Data on one protein can be found in article PMC7411048, “ATP-dependent hydroxylation of an unactivated primary carbon with water” (Nature Communications, 2020).

Substrate in data set [1]: C/C(=C\CC[C@@H](C)[C@H]1CC[C@H]2[C@@H]3CCC4=CC(=O)C=C[C@]4(C)[C@H]3CC[C@]12C)CO
The data set can be described thus: UPLC assay of 26-OH-DDO dehydrogenation to DDO-26-al. Type of data set: biochemical, Sterolibacterium denitrificans. The settings on record: 5 mM K3[Fe(CN)6] as electron acceptor, 50 mM MOPS/KOH pH 7.0, 6% HPCD, 30 °C, anaerobic, enriched enzyme.

Substrate in data set [2]: CC(C)=CCC[C@@H](C)[C@H]1CC[C@H]2[C@@H]3CCC4=CC(=O)C=C[C@]4(C)[C@H]3CC[C@]12C
The data set can be described thus: UPLC assay of DDO hydroxylation to 26-OH-DDO. The format is biochemical, Sterolibacterium denitrificans. To be noted: 5 mM K3[Fe(CN)6] as electron acceptor, 50 mM MOPS/KOH pH 7.0, 6% HPCD, 30 °C, anaerobic, enriched enzyme.

B1: S26DH1 (desmost-1,4-dien-3-one (DDO) hydroxylase; DH5) (Sterolibacterium denitrificans) (protein)
chain: PLQHFKGTTASGRFDLGPRTTPKLGNWQDLYRQRWTWDKVAKGSHGWANCRSACEWDLYVKDGVVVREEQSATYEASEPGIPDFNPRGCQKGACYTEVMYGPSRTTVPLKRVGPRGSGKWEKISWEQALREIAVKTVDAAEKWGTDTIYQDLGPNFDFGASTAGRFKFQFMAGGIFADNWAEIGDLNVGASITVGAAHLGGSADEWFLSDFIVVWMMNPSVTQIPDAHFLYEARYNGTELCVIDPQYSATAIHADQWLPLESGTDAALGLAVARYLLDTGAIDLPYIREQTDLPLLARLDTGRFLRESDLKAGGDEDQLYMWHPQKNAAVPAPGCLKNTTRSLKLDFEPPIDGQWKIKLANGEEVVVVPVGAMLKEHLDPWTFEHAAQVTHLHIDQIRKFAEGWAKAERPMVLSSWGSNRYVHSDLMNRTKMLLLMLKGALGKKGAGYQATGWVDLDGFGNAMQMEKSGMTGRLAVMLNAMPPKELFNAIVDIIKKRKTENDVALEGENNYLRNKLCTSDVVEVNLKSEGYRAALSKEQEGLYPRELSDYYDEAHEKGWAPGLPRKNTPKIFFSGGSNLLRRNNLPQYLKAHIWDQMDCIVDVNPKYSYTGTQADYILPAAGWYEKTGIKYTMSYIPYLHYCDAAVPPLAESKGEWEIYWLLTREMENYAKEKNQPILDGCGRGTIDMKTIHQRYTNQGDLGQHDQDKVTEEILRSESTKGMTVEGLRQTGIAKYTATGKNVQATALNNPDWKGEGVLTTLTRFTVHKEPWPTYSGRISSFIDHPWFIEGHEQFATHKDSPKAGGDYPFIFVSCHARWSIHSTWRDTPMMLRLQRGEPLVYLNPTDAAKIGVKDFEYVEIYNNYGSIRMRLKVTAMVRPGVAYYYHAWEPHQFPNHESYKNLIPGIVQPLHYAGGYGHINHALNRFQPGSAVQDTRIGIKPWTGQATGVKPVVVTAEEAAIAERANQAI
notes: alpha-beta-gamma complex, Mo-cofactor/FeS/heme b; produced in Thauera aromatica K172 with delta-chaperone (SdhD, delta4); enriched by three columns; with Steroid C26 dehydrogenase 1 beta subunit (FeS electron transfer subunit); Steroid C26 dehydrogenase 1 gamma subunit (heme b subunit)
In general, Km refers to the concentration of substrate that gives half-maximal velocity. Turning to B1, the results for the Michaelis constant (Km) in data set [1] and in data set [2] were 83 ± 12 µM and 123 ± 25 µM, respectively.
